Target: T1, V8 protease (Staphylococcus aureus, UniProt P0C1U8)
T1 construct: purchased CalBiochem (San Diego, Calif.)
Assay type: biochemical
Conditions: 30 μM peptide pre-incubated with 40 units CKII 18 hrs at 30° C. in absence of ATP; 1 unit V8 protease, room temperature, in less than three hours; HPLC (FIG. 3)
Experimental: The peptide (30 μM) was incubated at room temperature with V8 protease (0.1 units) in a buffer containing 20 mM Tris-HCl, 50 mM KCl, 10 mM MgCl2, pH 7.5 (CKII buffer) and aliquots were removed at various time points and flash-frozen in a dry-ice/methanol bath. Products of the protease digestion were then separated on the HPLC column using a 0% to 50% acetonitrile/water gradient in the presence of 0.1% TFA. Peptide was detected using both absorbance at 250 nm and by fluorescence of the rhodamine label using 530 nm excitation and 590 nm emission filters.
Subsequently, 1 unit of V8 protease was added to each sample and the samples were incubated at room temperature. Aliquots were removed at various time points and flash-frozen in a dry-ice/methanol bath for HPLC analysis as described above.

T1 sequence (P0C1U8 69-336): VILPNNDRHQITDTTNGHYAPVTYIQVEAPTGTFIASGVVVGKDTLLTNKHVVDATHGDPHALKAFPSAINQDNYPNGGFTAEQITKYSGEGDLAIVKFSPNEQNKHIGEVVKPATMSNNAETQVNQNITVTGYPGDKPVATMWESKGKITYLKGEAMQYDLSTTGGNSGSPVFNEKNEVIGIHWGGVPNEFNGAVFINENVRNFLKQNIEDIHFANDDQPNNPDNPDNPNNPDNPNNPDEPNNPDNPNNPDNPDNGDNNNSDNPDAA

“TMR-Asp-Glu-Ser-Glu-Glu-Glu-Asp-Lys(Nε-Flsn)-COOH (tetramethylrhodamine-DESEEEDK(fluorescein)-OH) [unphosphorylated peptide]” was tested, and the “peptide digested by V8 protease” value was 80%.
